Patent US20260035456A1

Target: CRLR/RAMP3 (human)

- IC50 (read off the curve): 100 µg/mL
Substance: hADM(22-52) (from UniProt P35318) (peptide)
